Assay results reported in US20260193348A1 (ANTENGENE BIOLOGICS, published 2026).

T1: CD20 on DoHH2 cells (human, UniProt P11836 1-297)
T1 construct: whole, on cells; Endogenous CD20 on the human DoHH2 cell line; also called DoHH2 cells expressing CD20
T1 sequence (looked up): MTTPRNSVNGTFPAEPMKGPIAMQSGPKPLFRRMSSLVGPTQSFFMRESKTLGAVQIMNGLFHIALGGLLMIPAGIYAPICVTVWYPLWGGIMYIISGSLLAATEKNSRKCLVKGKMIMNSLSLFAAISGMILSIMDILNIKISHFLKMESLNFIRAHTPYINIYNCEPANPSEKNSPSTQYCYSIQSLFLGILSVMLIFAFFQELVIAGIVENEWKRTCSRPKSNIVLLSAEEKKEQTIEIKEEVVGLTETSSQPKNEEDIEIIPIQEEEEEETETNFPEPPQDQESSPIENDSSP


Experiments:
[1] = target: T2, CD3 on T cells / Jurkat cells (human, UniProt P07766 23-207; P04234 22-171; P09693 23-182); assay: FACS on Jurkat cells expressing CD3
T2 construct: whole, on cells; Native CD3 complex on CD3+ T cells isolated from normal donors or on Jurkat cells; also called human CD3; CD3+ T cells

CD20 on DoHH2 cells = target: T1, CD20 on DoHH2 cells; assay: FACS on DoHH2 cells expressing CD20 (FIG. 45E)

T2 sequence (P07766 23-207, chain 1 of 3): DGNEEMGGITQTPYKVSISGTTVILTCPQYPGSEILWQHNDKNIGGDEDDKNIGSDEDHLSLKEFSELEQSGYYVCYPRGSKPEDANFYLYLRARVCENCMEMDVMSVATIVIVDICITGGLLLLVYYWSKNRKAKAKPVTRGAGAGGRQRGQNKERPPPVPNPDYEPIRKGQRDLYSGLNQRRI
T2 sequence (P04234 22-171, chain 2 of 3): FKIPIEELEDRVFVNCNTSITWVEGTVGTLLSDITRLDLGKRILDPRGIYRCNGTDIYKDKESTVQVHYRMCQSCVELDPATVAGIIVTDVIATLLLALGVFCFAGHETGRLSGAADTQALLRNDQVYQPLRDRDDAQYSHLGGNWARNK
T2 sequence (P09693 23-182, chain 3 of 3): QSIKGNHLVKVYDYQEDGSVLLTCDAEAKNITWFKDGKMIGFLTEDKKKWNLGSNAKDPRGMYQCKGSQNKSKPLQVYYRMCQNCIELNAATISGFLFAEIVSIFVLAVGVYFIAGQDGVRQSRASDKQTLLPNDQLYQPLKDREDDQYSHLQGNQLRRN

binding result [1]	EC50 (CD20 on DoHH2 cells)	Binder
binds	7.55 nM	ATG201-Y101F-200 (bispecific antibody, human IgG1, kappa, L234A L235A, L234A/L235A; also called ATG201-Y101F-20O) heavy 1: not shown heavy 2: EVQLVESGGGLVQPGRSLRLSCAASGFTFNDYAMHWVRQAPGKGLEWVSTISWNSGSIGYADSVKGRFTISRDNAKKSLYLQMNSLRAEDTALYYCAKDIQYGNYYYGMDVWGQGTTVTVSSASTKGPSVFPLAPSSKSTSGGTAALGCLVKDYFPEPVTVSWNSGALTSGVHTFPAVLQSSGLYSLSSVVTVPSSSLGTQTYICNVNHKPSNTKVDKKVEPKSCGGGGSGGGGSEVQLVQSGAEVKKPGSSVKVSCKASGYTFSSYVIHWVRQAPGQCLEWMGYINPYNDVIKYNEKFKGRVTLTSDKSTSTAYMELSSLRSEDTAVYYCARDSFYSYDGFAYWGQGTLVTVSSGGGGSGGGGSGGGGSGGGGSEIVLTQSPDFQSVTPKEKVTITCSASSSVSYMHWYQQKPDQSPKRLIYDTSKLASGVPSRFSGSGSGTDFTLTINSLEAEDAATYYCQQWSSNPPTFGCGTKVEIKGGGGSGGGGSDKTHTCPPCPAPEAAGGPSVFLFPPKPKDTLMISRTPEVTCVVVDVSHEDPEVKFNWYVDGVEVHNAKTKPREEQYNSTYRVVSVLTVLHQDWLNGKEYKCKVSNKALPAPIEKTISKAKGQPREPQVCTLPPSREEMTKNQVSLSCAVKGFYPSDIAVEWESNGQPENNYKTTPPVLDSDGSFFLVSKLTVDKSRWQQGNVFSCSVMHEALHNHYTQKSLSLSPGK light: not shown
binds	4.05 nM	ATG201-Y101F-20R (bispecific antibody, human IgG1, kappa, L234A L235A, CD20xCD3 Fab-scFv-Fab: two C20R Fabs, anti-CD3 scFv 40E9-L2H3-Y101F.H; L234A/L235A) heavy 1: not shown heavy 2: QVQLQQPGAELVKPGASVKMSCKASGYTFTSYNMHWVKQTPGRGLEWIGAIYPGNGDTSYNQKFKGKATLTADKSSSTAYMQLSSLTSEDSAVYYCARSTYYGGDWYFNVWGAGTTVTVSAASTKGPSVFPLAPSSKSTSGGTAALGCLVKDYFPEPVTVSWNSGALTSGVHTFPAVLQSSGLYSLSSVVTVPSSSLGTQTYICNVNHKPSNTKVDKKVEPKSCGGGGSGGGGSEVQLVQSGAEVKKPGSSVKVSCKASGYTFSSYVIHWVRQAPGQCLEWMGYINPYNDVIKYNEKFKGRVTLTSDKSTSTAYMELSSLRSEDTAVYYCARDSFYSYDGFAYWGQGTLVTVSSGGGGSGGGGSGGGGSGGGGSEIVLTQSPDFQSVTPKEKVTITCSASSSVSYMHWYQQKPDQSPKRLIYDTSKLASGVPSRFSGSGSGTDFTLTINSLEAEDAATYYCQQWSSNPPTFGCGTKVEIKGGGGSGGGGSDKTHTCPPCPAPEAAGGPSVFLFPPKPKDTLMISRTPEVTCVVVDVSHEDPEVKFNWYVDGVEVHNAKTKPREEQYNSTYRVVSVLTVLHQDWLNGKEYKCKVSNKALPAPIEKTISKAKGQPREPQVCTLPPSREEMTKNQVSLSCAVKGFYPSDIAVEWESNGQPENNYKTTPPVLDSDGSFFLVSKLTVDKSRWQQGNVFSCSVMHEALHNHYTQKSLSLSPGK light: QIVLSQSPAILSASPGEKVTMTCRASSSVSYIHWFQQKPGSSPKPWIYATSNLASGVPVRFSGSGSGTSYSLTISRVEAEDAATYYCQQWTSNPPTFGGGTKLEIKRTVAAPSVFIFPPSDEQLKSGTASVVCLLNNFYPREAKVQWKVDNALQSGNSQESVTEQDSKDSTYSLSSTLTLSKADYEKHKVYACEVTHQGLSSPVTKSFNRGEC
binds	3.13 nM	ATG201-N55S-20R (bispecific antibody, human IgG1, kappa, L234A L235A, CD20xCD3 Fab-scFv-Fab: two C20R Fabs, anti-CD3 scFv 40E9-L2H3-N55S.H; L234A/L235A) heavy 1: not shown heavy 2: QVQLQQPGAELVKPGASVKMSCKASGYTFTSYNMHWVKQTPGRGLEWIGAIYPGNGDTSYNQKFKGKATLTADKSSSTAYMQLSSLTSEDSAVYYCARSTYYGGDWYFNVWGAGTTVTVSAASTKGPSVFPLAPSSKSTSGGTAALGCLVKDYFPEPVTVSWNSGALTSGVHTFPAVLQSSGLYSLSSVVTVPSSSLGTQTYICNVNHKPSNTKVDKKVEPKSCGGGGSGGGGSEVQLVQSGAEVKKPGSSVKVSCKASGYTFSSYVIHWVRQAPGQCLEWMGYINPYSDVIKYNEKFKGRVTLTSDKSTSTAYMELSSLRSEDTAVYYCARDSYYSYDGFAYWGQGTLVTVSSGGGGSGGGGSGGGGSGGGGSEIVLTQSPDFQSVTPKEKVTITCSASSSVSYMHWYQQKPDQSPKRLIYDTSKLASGVPSRFSGSGSGTDFTLTINSLEAEDAATYYCQQWSSNPPTFGCGTKVEIKGGGGSGGGGSDKTHTCPPCPAPEAAGGPSVFLFPPKPKDTLMISRTPEVTCVVVDVSHEDPEVKFNWYVDGVEVHNAKTKPREEQYNSTYRVVSVLTVLHQDWLNGKEYKCKVSNKALPAPIEKTISKAKGQPREPQVCTLPPSREEMTKNQVSLSCAVKGFYPSDIAVEWESNGQPENNYKTTPPVLDSDGSFFLVSKLTVDKSRWQQGNVFSCSVMHEALHNHYTQKSLSLSPGK light: QIVLSQSPAILSASPGEKVTMTCRASSSVSYIHWFQQKPGSSPKPWIYATSNLASGVPVRFSGSGSGTSYSLTISRVEAEDAATYYCQQWTSNPPTFGGGTKLEIKRTVAAPSVFIFPPSDEQLKSGTASVVCLLNNFYPREAKVQWKVDNALQSGNSQESVTEQDSKDSTYSLSSTLTLSKADYEKHKVYACEVTHQGLSSPVTKSFNRGEC
